Laboratory results published in the supplement of paper PMC10126150.
± gives the standard deviation of the averaged measurements.

Test system: ATP
Assay: switch fluorescence ratio, 500 uM ATP over buffer (Cy3 cluster intensity, sum of 5 cycles each) (fold (ratio)); higher = stronger signal-on switching upon ATP binding; sequences stand for … in TCGTCGGCAGCGTCAGATGTGTATAAGAGACAGTTTTTTTTTTTTTTTTTTTTTTTTT…TC
Details: aptamer strand: ATP DNA aptamer (quencher-CACCTGGGGGAGTATTGCGGAGGAAGG + anchor), 100 nM annealed; ATP concentration: 500 uM
Outline: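 Clusters carrying Cy3-labelled switching strands on a modified Illumina MiSeq flow-cell were annealed to 100 nM quencher-labelled ATP aptamer and imaged in selection buffer. They were imaged again after 15 min with 500 uM ATP at 22 °C, over five buffer/ATP cycles with NaOH stripping and re-annealing in between. For each cluster, the fluorescence ratio is the summed Cy3 intensity of the target cycles divided by that of the buffer cycles, averaged per switch-domain sequence. Clusters outside 100-1000 RFU were left out.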
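Further: ATP exposure 15 min at 22 °C before imaging.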

Sequence	switch fluorescence ratio
ATGACTTGGG	0.96 ± 0.011
ATGACTTTGG	0.977 ± 0.028
ATGAGAAGGC	0.997 ± 0.038
ATGAGACCCT	1.07 ± 0.036
ATGAGAGCTT	0.982 ± 0.011
ATGAGATAGG	0.982 ± 0.045
ATGAGATTGC	0.9899 ± 0.0076
ATGAGGCACG	1.05 ± 0.068
ATGAGGGCAG	0.993 ± 0.018
ATGAGGGGCA	0.98 ± 0.026
ATGAGGTTTG	1.01 ± 0.019
ATGAGGTTTT	0.991 ± 0.012
ATGAGTCTTT	0.9801 ± 0.0079
ATGAGTGCTC	0.98 ± 0.0086
ATGAGTGGAG	1.034 ± 0.004
ATGAGTTACT	1.005 ± 0.0051
ATGAGTTGGT	0.982 ± 0.033
ATGAGTTTTG	0.984 ± 0.029
ATGATACAGG	1.08 ± 0.039
ATGATATGTT	0.992 ± 0.034
ATGATGCAGA	1.004 ± 0.008
ATGATGCTTG	0.993 ± 0.045
ATGATGGGGA	0.987 ± 0.021

Sequence	switch fluorescence ratio
ATGATGGGTG	1.01 ± 0.02
ATGATGGTCC	0.9778 ± 0.0014
ATGATGGTTA	0.9978 ± 0.0052
ATGATTGACC	1.083 ± 0.0026
ATGATTTTTC	0.976 ± 0.039
ATGCAACCAT	1.01 ± 0.013
ATGCACGTGG	1.008 ± 0.003
ATGCACTGGG	1.08 ± 0.05
ATGCATAGAT	1.01 ± 0.032
ATGCATGAAA	1 ± 0.017
ATGCATGGGC	1.03 ± 0.022
ATGCATGTGC	0.983 ± 0.01
ATGCATTAAT	0.997 ± 0.015
ATGCATTGCG	0.99777 ± 0.00081
ATGCATTGGA	1.01 ± 0.029
ATGCCGGAG	0.986 ± 0.028
ATGCGAAGGT	1.04 ± 0.037
ATGCGAATAT	0.989 ± 0.015
ATGCGAGTGG	1.01 ± 0.047
ATGCGATGGC	1.02 ± 0.0072
ATGCGCCGGT	1.011 ± 0.0027
ATGCGGCATT	1.03 ± 0.044
ATGCGGGCCC	0.99 ± 0.012

Sequence	switch fluorescence ratio
ATGCGGGGGC	1.045 ± 0.0046
ATGCGGGGGT	0.993 ± 0.037
ATGCGGGTGC	1.04 ± 0.039
ATGCGGGTTT	1.02 ± 0.018
ATGCGTCGCG	0.986 ± 0.025
ATGCGTGGAA	1.02 ± 0.027
ATGCTAACGT	0.9818 ± 0.0032
ATGCTATGCG	1.008 ± 0.01
ATGCTATGGT	0.987 ± 0.013
ATGCTGGGCG	1.02 ± 0.041
ATGCTGTTGG	1 ± 0.026
ATGCTTCTTT	0.9854 ± 0.0053
ATGGAAAGGG	0.989 ± 0.041
ATGGAACCGT	1.02 ± 0.027
ATGGAACCTT	1.28 ± 0.34
ATGGAAGGGA	1.15 ± 0.21
ATGGAAGTGC	0.9827 ± 0.0068
ATGGAAGTGG	0.9908 ± 0.007
ATGGAATGCG	1.028 ± 0.0089
ATGGACACGC	1.03 ± 0.042
ATGGACTATG	1.02 ± 0.043
ATGGAGAAAG	1.02 ± 0.059
ATGGAGGCG	1.03 ± 0.013

Sequence	switch fluorescence ratio
ATGGAGGGTA	0.99 ± 0.016
ATGGAGTGTG	0.989 ± 0.02
ATGGAGTTG	0.994 ± 0.024
ATGGATACGG	1.02 ± 0.011
ATGGATAGCG	0.968 ± 0.074
ATGGATCTCA	1 ± 0.0063
ATGGATGACA	0.951 ± 0.052
ATGGATTCTG	1.07 ± 0.091
ATGGATTTGT	1.01 ± 0.021
ATGGCAACCG	1.02 ± 0.012
ATGGCAAGGT	1.02 ± 0.065
ATGGCAGACT	1.02 ± 0.052
ATGGCAGCTG	0.9949 ± 0.0095
ATGGCCGGGT	1.01 ± 0.013
ATGGCCGGTT	1.04 ± 0.013
ATGGCGACGA	1.027 ± 0.0095
ATGGCGAGGG	0.989 ± 0.017
ATGGCGATCA	0.999 ± 0.0078
ATGGCTTGGT	0.99 ± 0.025
ATGGGAAGGC	0.983 ± 0.026
ATGGGACAGT	0.988 ± 0.05
ATGGGACGGC	0.998 ± 0.032
ATGGGAGGGC	0.9698 ± 0.0059

Sequence	switch fluorescence ratio
ATGGGAGGTG	1.01 ± 0.039
ATGGGATGCG	0.981 ± 0.016
ATGGGCAGCT	1.02 ± 0.011
ATGGGCCGGG	0.9955 ± 0.0074
ATGGGCTAGA	0.9731 ± 0.0052
ATGGGCTGGG	0.997 ± 0.035
ATGGGCTTAC	1.2301 ± 0.00072
ATGGGGAATA	1.03 ± 0.0059
ATGGGGCATA	1.01 ± 0.045
ATGGGGGAA	0.997 ± 0.042
ATGGGGGCAC	0.971 ± 0.032
ATGGGGGGCA	0.971 ± 0.025
ATGGGGGGT	0.992 ± 0.028
ATGGGGGGTT	1.01 ± 0.043
ATGGGGGTAG	1.01 ± 0.048
ATGGGGTGGC	0.9977 ± 0.0017
ATGGGGTGGG	0.985 ± 0.026
ATGGGGTGTG	1 ± 0.018
ATGGGTACGG	1.02 ± 0.029
ATGGGTGAGT	1.002 ± 0.0086
ATGGGTGCCT	1.03 ± 0.023
ATGGGTGTGC	1 ± 0.034
ATGGGTTAGC	0.998 ± 0.011

Sequence	switch fluorescence ratio
ATGGGTTCAG	0.969 ± 0.0045
ATGGGTTTAG	0.994 ± 0.016
ATGGTAAGT	0.9815 ± 0.0057
ATGGTAGTAA	1.01 ± 0.024
ATGGTAGTGG	0.995 ± 0.026
ATGGTATATT	1 ± 0.033
ATGGTCAGGT	1.01 ± 0.019
ATGGTCGGGA	0.986 ± 0.026
ATGGTCGTCG	0.9939 ± 0.0035
ATGGTCGTCT	0.971 ± 0.027
ATGGTCTGCC	0.974 ± 0.02
ATGGTCTGCG	1 ± 0.018
ATGGTGAAGG	1.01 ± 0.066
ATGGTGGTGG	1.011 ± 0.0062
ATGGTGTAGG	1.01 ± 0.012
ATGGTGTATC	0.981 ± 0.026
ATGGTTAAAT	0.976 ± 0.033
ATGGTTACGG	1 ± 0.035
ATGGTTGTCA	1.03 ± 0.015
ATGGTTTATA	0.977 ± 0.045
ATGGTTTGTA	0.9744 ± 0.0088
ATGTAAACGC	1.03 ± 0.038
ATGTAACCGT	1.01 ± 0.012

Sequence	switch fluorescence ratio
ATGTAATAGC	0.989 ± 0.022
ATGTAATAGG	0.995 ± 0.046
ATGTAATGAT	1.02 ± 0.018
ATGTACGAGA	1.06 ± 0.019
ATGTACGTAG	1.03 ± 0.025
ATGTACGTTT	0.9983 ± 0.0007
ATGTAGGGAG	0.998 ± 0.017
ATGTAGGGG	1 ± 0.022
ATGTAGTACG	1 ± 0.02
ATGTAGTGCG	0.99 ± 0.021
ATGTAGTTGG	1 ± 0.016
ATGTAGTTGT	0.979 ± 0.041
ATGTATCACT	0.984 ± 0.015
ATGTATCATG	1 ± 0.033
ATGTATCGGC	1.01 ± 0.06
ATGTATCGGG	0.975 ± 0.036
ATGTATTAAG	0.98 ± 0.015
ATGTATTCAG	0.96694 ± 0.00025
ATGTATTCTT	0.987 ± 0.052
